In the supplement of paper PMC10065799, “High-throughput profiling of sequence recognition by tyrosine kinases and SH2 domains using bacterial peptide display” (eLife, 2023):

Legend:
[1] = target: Grb2 SH2 (UniProt P62993); experiment: SH2 binding enrichment of the phosphorylated peptide, bacterial display (enrichment ratio); higher = better substrate or ligand; peptides without Tyr show the background
[2] = target: SHP2-C SH2; experiment: as above
[3] = target: c-Src SH2; experiment: as above
[4] = target: FGFR1 (UniProt P11362); experiment: phosphorylation enrichment, bacterial display (enrichment ratio); higher = better substrate or ligand; peptides without Tyr show the background
Sequence of FGFR1 (P11362 whole entry, looked up): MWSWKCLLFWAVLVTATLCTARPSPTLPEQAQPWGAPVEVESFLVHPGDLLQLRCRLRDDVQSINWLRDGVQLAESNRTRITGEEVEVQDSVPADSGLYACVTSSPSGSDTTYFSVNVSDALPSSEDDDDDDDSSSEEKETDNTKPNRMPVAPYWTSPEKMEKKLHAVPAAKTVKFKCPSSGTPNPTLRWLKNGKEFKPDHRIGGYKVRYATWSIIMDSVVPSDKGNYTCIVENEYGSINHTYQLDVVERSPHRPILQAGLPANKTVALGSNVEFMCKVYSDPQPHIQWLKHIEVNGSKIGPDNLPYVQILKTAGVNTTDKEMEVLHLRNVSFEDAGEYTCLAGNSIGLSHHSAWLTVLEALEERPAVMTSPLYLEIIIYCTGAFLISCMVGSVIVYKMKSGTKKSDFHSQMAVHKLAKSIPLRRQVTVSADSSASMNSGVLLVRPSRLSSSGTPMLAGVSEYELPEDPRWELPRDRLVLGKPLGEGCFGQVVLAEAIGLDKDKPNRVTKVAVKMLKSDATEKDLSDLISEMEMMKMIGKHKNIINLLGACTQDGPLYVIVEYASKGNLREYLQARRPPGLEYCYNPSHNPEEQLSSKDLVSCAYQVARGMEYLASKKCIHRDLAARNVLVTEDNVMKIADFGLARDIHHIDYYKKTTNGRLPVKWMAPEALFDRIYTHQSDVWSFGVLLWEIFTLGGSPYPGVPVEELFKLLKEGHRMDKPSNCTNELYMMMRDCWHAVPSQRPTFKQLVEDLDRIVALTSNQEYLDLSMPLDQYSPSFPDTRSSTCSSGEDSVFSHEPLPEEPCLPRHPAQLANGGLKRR

[5] = target: FGFR3 (UniProt P22607); experiment: as above
Sequence of FGFR3 (P22607 whole entry, looked up): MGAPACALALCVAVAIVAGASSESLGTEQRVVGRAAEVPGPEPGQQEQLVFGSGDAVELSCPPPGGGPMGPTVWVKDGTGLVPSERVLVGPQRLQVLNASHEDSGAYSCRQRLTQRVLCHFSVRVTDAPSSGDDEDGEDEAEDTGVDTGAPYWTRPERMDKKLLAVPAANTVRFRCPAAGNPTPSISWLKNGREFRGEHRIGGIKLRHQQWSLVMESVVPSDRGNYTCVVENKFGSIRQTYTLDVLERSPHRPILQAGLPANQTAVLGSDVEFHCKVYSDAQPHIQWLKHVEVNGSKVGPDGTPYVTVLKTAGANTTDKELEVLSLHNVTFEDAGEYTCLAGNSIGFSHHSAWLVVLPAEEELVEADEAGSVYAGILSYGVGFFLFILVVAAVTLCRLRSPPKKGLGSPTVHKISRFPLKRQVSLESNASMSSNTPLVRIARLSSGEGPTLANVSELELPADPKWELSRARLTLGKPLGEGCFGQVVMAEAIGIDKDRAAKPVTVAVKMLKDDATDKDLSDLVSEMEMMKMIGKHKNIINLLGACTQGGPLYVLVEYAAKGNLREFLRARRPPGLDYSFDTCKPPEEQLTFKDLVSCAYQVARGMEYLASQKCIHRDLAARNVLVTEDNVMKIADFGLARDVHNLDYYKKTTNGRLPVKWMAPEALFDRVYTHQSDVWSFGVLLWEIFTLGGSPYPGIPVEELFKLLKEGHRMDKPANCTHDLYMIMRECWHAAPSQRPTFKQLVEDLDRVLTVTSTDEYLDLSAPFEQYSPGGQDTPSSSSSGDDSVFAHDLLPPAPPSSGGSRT

[6] = target: EPHB2 (UniProt P29323); experiment: as above
[7] = target: EPHB1 (UniProt P54762); experiment: as above
[8] = target: Jak2 (UniProt O60674); experiment: as above
Sequence of Jak2 (O60674 whole entry, looked up): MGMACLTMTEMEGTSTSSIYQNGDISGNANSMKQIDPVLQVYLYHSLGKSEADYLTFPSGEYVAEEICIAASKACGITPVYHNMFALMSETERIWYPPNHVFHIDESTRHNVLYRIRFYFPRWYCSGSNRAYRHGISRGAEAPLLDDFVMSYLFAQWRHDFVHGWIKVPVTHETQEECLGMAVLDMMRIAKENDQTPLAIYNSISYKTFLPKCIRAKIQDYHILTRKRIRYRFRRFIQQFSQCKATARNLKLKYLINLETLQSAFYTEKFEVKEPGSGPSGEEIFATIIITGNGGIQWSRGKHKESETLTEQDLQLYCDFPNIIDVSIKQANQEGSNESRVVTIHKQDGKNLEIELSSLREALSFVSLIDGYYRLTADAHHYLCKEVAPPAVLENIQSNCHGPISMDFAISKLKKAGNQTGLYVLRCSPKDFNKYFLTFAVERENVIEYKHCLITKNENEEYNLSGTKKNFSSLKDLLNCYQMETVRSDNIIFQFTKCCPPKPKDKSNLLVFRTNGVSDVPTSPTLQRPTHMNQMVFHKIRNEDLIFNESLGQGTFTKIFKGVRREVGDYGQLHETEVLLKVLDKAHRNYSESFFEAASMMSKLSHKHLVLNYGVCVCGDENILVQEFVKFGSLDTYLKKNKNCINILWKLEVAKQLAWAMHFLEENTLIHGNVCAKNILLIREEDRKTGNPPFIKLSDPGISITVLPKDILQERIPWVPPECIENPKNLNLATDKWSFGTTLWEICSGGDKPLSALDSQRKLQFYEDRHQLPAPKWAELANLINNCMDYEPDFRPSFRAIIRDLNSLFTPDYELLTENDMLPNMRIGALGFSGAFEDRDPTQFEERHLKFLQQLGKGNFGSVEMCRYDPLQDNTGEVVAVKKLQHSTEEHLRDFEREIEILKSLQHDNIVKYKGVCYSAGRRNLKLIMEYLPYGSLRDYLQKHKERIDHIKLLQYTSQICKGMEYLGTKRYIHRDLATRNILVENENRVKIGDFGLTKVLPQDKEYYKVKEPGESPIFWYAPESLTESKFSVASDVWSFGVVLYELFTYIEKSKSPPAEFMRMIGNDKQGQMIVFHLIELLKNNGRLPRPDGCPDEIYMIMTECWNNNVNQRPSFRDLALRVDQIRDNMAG

[9] = system: AncSZ; experiment: as above
[10] = target: Hck (UniProt P08631); experiment: as above
Sequence of Hck (P08631 whole entry, looked up): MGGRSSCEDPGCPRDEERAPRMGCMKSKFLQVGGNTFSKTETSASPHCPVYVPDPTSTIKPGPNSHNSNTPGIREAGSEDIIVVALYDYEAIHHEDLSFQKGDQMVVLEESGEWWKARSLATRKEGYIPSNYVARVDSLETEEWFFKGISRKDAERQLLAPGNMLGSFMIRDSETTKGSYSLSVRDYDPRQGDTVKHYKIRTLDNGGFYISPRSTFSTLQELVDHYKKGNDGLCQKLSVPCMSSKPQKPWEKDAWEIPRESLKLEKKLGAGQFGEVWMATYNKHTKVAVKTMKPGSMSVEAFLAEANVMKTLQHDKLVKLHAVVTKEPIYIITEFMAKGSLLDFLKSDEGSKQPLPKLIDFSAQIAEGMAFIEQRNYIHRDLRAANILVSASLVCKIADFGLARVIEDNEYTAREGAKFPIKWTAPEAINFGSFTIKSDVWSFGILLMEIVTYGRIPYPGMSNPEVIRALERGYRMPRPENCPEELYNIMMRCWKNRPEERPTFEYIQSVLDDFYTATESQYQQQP

[11] = target: MERTK (UniProt Q12866); experiment: as above
Sequence of MERTK (Q12866 whole entry, looked up): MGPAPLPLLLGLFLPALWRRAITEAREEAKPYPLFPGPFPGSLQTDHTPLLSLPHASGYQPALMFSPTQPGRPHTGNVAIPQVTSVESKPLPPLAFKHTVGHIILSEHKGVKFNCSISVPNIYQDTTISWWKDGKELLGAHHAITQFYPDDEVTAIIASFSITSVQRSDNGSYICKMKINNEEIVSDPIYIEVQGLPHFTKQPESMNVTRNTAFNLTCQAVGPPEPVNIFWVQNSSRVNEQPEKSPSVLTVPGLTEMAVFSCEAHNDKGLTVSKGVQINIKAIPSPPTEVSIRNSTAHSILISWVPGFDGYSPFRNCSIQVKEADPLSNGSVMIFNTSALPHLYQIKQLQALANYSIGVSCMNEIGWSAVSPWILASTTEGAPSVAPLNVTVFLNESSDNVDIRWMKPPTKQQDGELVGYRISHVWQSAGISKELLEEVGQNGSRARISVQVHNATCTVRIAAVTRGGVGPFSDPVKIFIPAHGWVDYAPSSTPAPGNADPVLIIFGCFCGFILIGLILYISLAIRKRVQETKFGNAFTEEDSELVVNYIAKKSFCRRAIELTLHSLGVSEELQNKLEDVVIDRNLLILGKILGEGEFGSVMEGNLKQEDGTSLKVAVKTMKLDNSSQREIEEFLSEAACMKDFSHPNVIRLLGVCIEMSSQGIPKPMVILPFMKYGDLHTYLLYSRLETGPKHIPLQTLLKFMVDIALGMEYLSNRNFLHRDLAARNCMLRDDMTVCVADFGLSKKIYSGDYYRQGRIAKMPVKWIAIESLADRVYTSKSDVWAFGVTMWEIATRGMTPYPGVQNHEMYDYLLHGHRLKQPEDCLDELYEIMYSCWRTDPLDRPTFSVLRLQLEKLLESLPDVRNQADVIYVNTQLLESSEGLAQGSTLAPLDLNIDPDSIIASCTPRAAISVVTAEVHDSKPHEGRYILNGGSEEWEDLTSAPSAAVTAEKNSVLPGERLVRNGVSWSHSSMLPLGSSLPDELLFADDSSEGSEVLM

[12] = system: c-Src; experiment: as above
[13] = target: Fyn (UniProt P06241); experiment: as above
Sequence of Fyn (P06241 whole entry, looked up): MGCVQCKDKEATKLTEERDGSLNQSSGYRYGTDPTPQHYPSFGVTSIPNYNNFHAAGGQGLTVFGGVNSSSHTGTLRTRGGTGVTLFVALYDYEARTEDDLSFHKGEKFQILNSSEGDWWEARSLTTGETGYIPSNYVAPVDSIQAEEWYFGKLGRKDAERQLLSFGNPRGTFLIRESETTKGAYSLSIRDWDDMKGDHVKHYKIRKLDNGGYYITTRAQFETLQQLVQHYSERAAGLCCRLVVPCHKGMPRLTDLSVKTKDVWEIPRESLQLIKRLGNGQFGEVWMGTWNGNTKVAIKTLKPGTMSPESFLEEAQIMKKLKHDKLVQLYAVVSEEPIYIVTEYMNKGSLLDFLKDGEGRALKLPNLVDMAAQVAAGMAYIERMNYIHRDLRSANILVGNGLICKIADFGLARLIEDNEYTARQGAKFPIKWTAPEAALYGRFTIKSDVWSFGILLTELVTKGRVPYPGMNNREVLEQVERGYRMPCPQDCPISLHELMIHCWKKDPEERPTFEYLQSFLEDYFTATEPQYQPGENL

[14] = target: Fes (UniProt P07332); experiment: as above
[15] = system: Fer (mouse); experiment: as above
[16] = system: c-Abl (mouse); experiment: as above
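Wherever SH2 binding enrichment of the phosphorylated peptide, bacterial display is given: peptide library displayed on the E. coli surface as eCPX fusions, selected cells deep-sequenced, score is each peptide's frequency after selection divided by its frequency in the input.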
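Wherever phosphorylation enrichment, bacterial display is given: 11-residue human phosphosite peptides and single-mutation variants displayed on the E. coli surface, counted by deep sequencing, each peptide's frequency after selection divided by its frequency in the unselected input library; frequency after pTyr selection over input frequency; kinase dosed for 20-30% of maximal phosphorylation in three min.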

Sequence of Grb2 SH2 (P62993 whole entry, looked up): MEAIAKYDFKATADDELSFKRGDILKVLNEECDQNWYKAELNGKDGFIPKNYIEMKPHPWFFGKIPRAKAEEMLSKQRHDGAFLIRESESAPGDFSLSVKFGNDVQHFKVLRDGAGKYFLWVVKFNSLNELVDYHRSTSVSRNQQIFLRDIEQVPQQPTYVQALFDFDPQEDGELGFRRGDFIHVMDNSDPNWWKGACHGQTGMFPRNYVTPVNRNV

Sequence | SH2 binding enrichment [1] | SH2 binding enrichment [2] | SH2 binding enrichment [3] | phosphorylation enrichment [4] | phosphorylation enrichment [5] | phosphorylation enrichment [6] | phosphorylation enrichment [7] | phosphorylation enrichment [8] | phosphorylation enrichment [9] | phosphorylation enrichment [10] | phosphorylation enrichment [11] | phosphorylation enrichment [12] | phosphorylation enrichment [13] | phosphorylation enrichment [14] | phosphorylation enrichment [15] | phosphorylation enrichment [16]
QRRLIYRCQVG [NR2E3_Y81_R76Q] | 0.628 | 0.412 | 0.606 | 0.579 | 0.845 | 0.728 | 0.622 | 1.03 | 0.968 | 0.629 | 0.652 | 0.569 | 0.764 | 0.861 | 0.643 | 0.595
EDASEYYENYI [PARP4_Y214_F215Y] | 0.857 | 0.589 | 0.582 | 1.66 | 1.6 | 0.761 | 0.782 | 1.02 | 1.93 | 0.666 | 0.467 | 1.02 | 0.738 | 1.3 | 0.995 | 0.716
FLENFYDLEKD [MMP3_Y42_K45E_YF] | 0.978 | 0.907 | 0.677 | 0.504 | 0.679 | 0.546 | 0.531 | 1.21 | 1.33 | 1.39 | 0.516 | 2.23 | 4.33 | 1.34 | 0.433 | 0.764
LESILYESSVV [TRPV4_Y91_T89I] | 0.86 | 0.732 | 0.613 | 0.725 | 0.825 | 0.719 | 0.607 | 1.23 | 1.65 | 1.65 | 0.678 | 1.14 | 1.22 | 1.39 | 7.52 | 1.01
NTILLYHIMAW [GPR143_Y157_S152N] | 0.801 | 0.829 | 0.577 | 3.19 | 3.15 | 3.9 | 5.65 | 2.07 | 1.52 | 1.56 | 4.42 | 1.27 | 0.8 | 1.62 | 0.89 | 1.25
PPAPRYHDSAV [LZTR1_Y119_H121D] | 0.729 | 0.508 | 0.551 | 0.532 | 0.711 | 0.476 | 0.658 | 0.979 | 0.73 | 0.684 | 0.741 | 0.728 | 0.861 | 0.877 | 0.448 | 0.743
LTERGYSFVTT [ACTA1_Y200] | 0.794 | 6.24 | 7.8 | 0.927 | 1.17 | 0.95 | 0.796 | 1.1 | 1.4 | 0.708 | 0.769 | 0.657 | 0.582 | 1.41 | 0.823 | 0.941
QELRRYLKSGI [MICA_Y194_V199I] | 0.747 | 0.525 | 0.434 | 0.429 | 0.313 | 0.281 | 0.332 | 0.335 | 0.489 | 0.496 | 0.406 | 0.294 | 0.482 | 0.458 | 0.534 | 0.402
RSRSPYSSRHS [CDK13_Y415] | 0.793 | 0.543 | 0.433 | 0.701 | 0.489 | 0.614 | 0.422 | 0.472 | 0.596 | 0.548 | 0.625 | 0.446 | 0.557 | 0.634 | 0.439 | 0.637
SNMPSYSGHFT [GRIN2A_Y1224_T1223S] | 0.79 | 0.631 | 0.548 | 0.328 | 0.421 | 0.408 | 0.417 | 0.614 | 0.476 | 0.425 | 0.411 | 0.463 | 0.465 | 0.599 | 1.6 | 0.444
LFDPDFMKVIL [CYP4A22_Y104_Y104F_YF] | 1.06 | 0.543 | 0.463 | 1.15 | 1.86 | 0.908 | 1.63 | 2.74 | 2.44 | 1.12 | 1.06 | 1.23 | 0.899 | 2.6 | 0.999 | 2.1
MPIPMYDASQA [CARMIL1_Y637] | 0.887 | 0.75 | 0.537 | 0.595 | 0.629 | 1.01 | 0.867 | 0.717 | 0.751 | 0.552 | 0.566 | 0.46 | 0.643 | 0.73 | 0.565 | 0.824
PQIVNYSPDCI [LDHB_Y128_K127N] | 0.891 | 0.492 | 0.506 | 0.684 | 0.939 | 0.451 | 0.668 | 0.254 | 0.415 | 1 | 0.179 | 0.387 | 0.457 | 0.824 | 0.83 | 0.216
PRPACYPSTVS [CACNA1C_Y1832_G1831C] | 0.865 | 0.8 | 0.65 | 0.49 | 0.598 | 0.435 | 0.575 | 0.721 | 0.554 | 0.49 | 0.356 | 0.484 | 0.51 | 0.792 | 0.381 | 0.437
MASTSYDYCRV [BST2_Y6] | 0.904 | 0.671 | 1.79 | 1.27 | 0.851 | 3.51 | 4.88 | 0.687 | 1.11 | 0.905 | 0.904 | 0.577 | 0.481 | 0.68 | 2.69 | 0.956
YQLENYCNGGG [INS_Y108] | 0.862 | 0.697 | 0.76 | 0.536 | 0.477 | 0.572 | 0.686 | 0.461 | 0.768 | 0.568 | 0.426 | 0.455 | 0.57 | 0.812 | 0.55 | 0.473
YAADYYKLLGN [ROR2_Y646] | 0.683 | 0.467 | 0.504 | 12.5 | 9.3 | 0.863 | 0.963 | 4.53 | 1.1 | 0.808 | 1.47 | 0.908 | 0.452 | 0.993 | 0.634 | 0.769

Sequence | SH2 binding enrichment [1] | SH2 binding enrichment [2] | SH2 binding enrichment [3] | phosphorylation enrichment [4] | phosphorylation enrichment [5] | phosphorylation enrichment [6] | phosphorylation enrichment [7] | phosphorylation enrichment [8] | phosphorylation enrichment [9] | phosphorylation enrichment [10] | phosphorylation enrichment [11] | phosphorylation enrichment [12] | phosphorylation enrichment [13] | phosphorylation enrichment [14] | phosphorylation enrichment [15] | phosphorylation enrichment [16]
GSESDYIIMPN [SCARB1_Y133_V135I] | 0.762 | 0.873 | 0.431 | 5.65 | 3.91 | 6.96 | 6.96 | 0.919 | 2.88 | 0.526 | 0.551 | 0.6 | 0.456 | 0.826 | 0.411 | 0.466
DAASNYARGHF [TUBA3E_Y103_YF] | 0.688 | 0.844 | 0.458 | 0.41 | 0.526 | 0.514 | 0.502 | 0.604 | 0.503 | 0.47 | 0.465 | 0.394 | 0.398 | 0.584 | 0.403 | 0.537
PKDSAYVTWEP | 0.938 | 0.675 | 0.487 | 2.14 | 1.45 | 0.798 | 1.03 | 1.36 | 1.66 | 2.38 | 1.39 | 2.02 | 2.17 | 1.4 | 2.5 | 1.16
WQQQSYLDSEI [CTNNB1_Y30_G34E] | 0.992 | 0.707 | 0.49 | 0.397 | 0.669 | 0.557 | 0.512 | 0.96 | 0.792 | 0.444 | 0.377 | 0.421 | 0.437 | 0.854 | 0.514 | 0.581
MDNQEYKDAYK [BRDT_Y331] | 0.814 | 1.05 | 0.499 | 0.485 | 0.652 | 0.402 | 0.546 | 0.901 | 0.932 | 0.474 | 0.445 | 0.368 | 0.417 | 1.12 | 0.456 | 0.677
YSMGCYEFSLG [HMGCL_Y198_I200F] | 0.8 | 0.864 | 0.701 | 1.23 | 1.37 | 1.37 | 1.52 | 1.06 | 2.47 | 1.25 | 3.64 | 2.37 | 2.12 | 1.39 | 4.95 | 0.864
KDQGTYEDYVE [MYL6_Y86] | 0.755 | 0.553 | 0.784 | 0.534 | 0.721 | 0.576 | 0.493 | 1.13 | 1.24 | 0.617 | 0.543 | 0.768 | 0.647 | 1.23 | 0.56 | 0.866
YIIFIYAMKKK [SLCO1B1_Y645_L643F] | 2.31 | 1.68 | 1.23 | 0.655 | 0.507 | 0.239 | 0.273 | 0.545 | 0.602 | 0.473 | 0.849 | 0.287 | 0.343 | 0.536 | 0.433 | 0.465
SWKRRYFLLWA [APBB1IP_Y331_R335W] | 0.684 | 0.646 | 0.428 | 0.479 | 0.545 | 0.5 | 0.443 | 0.571 | 0.686 | 0.497 | 0.59 | 0.661 | 0.576 | 0.591 | 0.433 | 0.478
SHISGYAALRR [RAPH1_Y1226_T1228A] | 0.56 | 0.51 | 0.318 | 0.361 | 0.554 | 0.476 | 0.328 | 0.561 | 0.836 | 0.431 | 0.446 | 0.44 | 0.494 | 1.04 | 0.432 | 0.726
SLNEEYTKNKT [MSH2_Y563] | 0.988 | 0.663 | 0.621 | 0.324 | 0.397 | 0.354 | 0.369 | 0.593 | 0.716 | 0.37 | 0.348 | 0.426 | 0.325 | 0.786 | 0.379 | 0.537
TVSTGYTQPQP [SARG_Y259_R258G] | 0.633 | 0.68 | 1.53 | 0.523 | 0.629 | 0.374 | 0.378 | 0.508 | 0.675 | 0.47 | 0.371 | 0.479 | 0.442 | 0.64 | 0.513 | 0.511
SWSTSYSGFRC [NKAPL_Y91_Y96C_YF] | 0.87 | 0.57 | 0.43 | 0.528 | 0.763 | 0.597 | 0.616 | 0.877 | 0.985 | 0.642 | 0.424 | 0.972 | 0.643 | 1.1 | 0.531 | 0.761
DAMQTYNGNDE [TSPAN7_Y131] | 0.654 | 0.613 | 0.71 | 0.508 | 0.837 | 0.576 | 0.637 | 1.03 | 1.01 | 0.494 | 0.585 | 0.685 | 0.55 | 1.11 | 0.531 | 0.653
KNEVLYDEENH [ARFGEF1_Y314_G316E] | 0.664 | 0.789 | 0.636 | 0.591 | 0.671 | 0.618 | 0.568 | 1.3 | 1.25 | 0.547 | 0.401 | 0.582 | 0.537 | 1.4 | 0.5 | 0.997
REAAAYLHGRL [AGXT_Y297] | 0.956 | 1.03 | 0.557 | 0.671 | 0.595 | 0.571 | 0.322 | 1 | 0.891 | 0.479 | 0.584 | 0.655 | 0.543 | 1.03 | 0.502 | 1.04
